In one test the test system is THP1 cells. The test can be described thus: Chemokine dose-response, THP1 cell migration. Conditions: mean of biological replicates (2-7); for Mean pEC80: 3-parameter log-logistic fit, maximum fixed at 100%. In kind it is cell-based, human. The protocol: Cell lines were confirmed mycoplasma free by monthly testing using a MycoAlert^TM kit (LT07-118, Lonza) following the manufacturer’s instructions. THP1 cells: THP1 cells (ECACC 88081201, a human monocyte leukemia cell line[51]) were obtained from ECACC and were cultured in T175 flasks at 0.3-1 × 10^6 cells/mL in Roswell Park Memorial Institute (RPMI) 1640 medium (R0883, Sigma) with 10% FBS (F9665, Sigma) and 5mM L-glutamine (G7513, Sigma), 37 °C, 5% CO2. J:CXCR1 cells: The J:CXCR1 cell line was cultured in the same manner as THP1 cells at 0.15-1 × 10^6 cells per mL[37]. Activated T-cells: T-cells were isolated, activated and expanded as follows. Briefly, density gradient centrifugation using Lymphoprep^TM density gradient medium (07801, […] Technologies) and a SepMate^TM isolation tube (85450, […] Technologies) was used to isolate peripheral blood mononuclear cells from human leukocyte cones. Two rounds of purification using a human CD8 + T-cell isolation kit (480011, BioLegend) were used to isolate CD8 + T-cells from peripheral blood mononuclear cells. Activation of CD8 + T-cells was performed in ImmunoCult^TM-XF T-cell expansion medium (10982, […] Technologies) with an anti-CD3/anti-CD28 T-cell activator at 25 μl/ml (10991, […] Technologies), supplemented with 10 ng/ml recombinant human IL-2 (200-02, PeproTech) with 1% penicillin/streptomycin. T-cells were passaged every 2–3 days in TexMACS medium (130-097-196, Miltenyi Biotec), supplemented with 10 ng/ml human IL-2 (200-05-250, Peprotech) and incubated at 37 °C in 5% CO2. CD8 + T-cells were frozen at day 10-13 after initial activation, at 20×10^6 cell/ml in TexMACS medium supplemented with 10% DMSO (D2650, Sigma) in liquid nitrogen. Activated CD8^+ T-cells were recovered in TexMACs medium at 0.3 × 10^6 cell/ml and incubated at 37 °C in 5% CO2, 24 h prior to use. For buffy coat experiments a mixture of primary human monocytes, granulocytes and lymphocytes was isolated from human buffy coat. Briefly, RBCs were sedimented in HetaSep (07806, […] Technologies) with 1 mL of HetaSep per 5 mL of blood for 15 min at 37 °C. The buffy coat layer was collected from the top and washed in 50 ml MACS buffer (PBS (P4417, Sigma), 0.5% BSA (A7030, Sigma), 0.075% EDTA (E5134, Sigma), pH 7.2), by centrifugation at 2000 g for 10 min at room temperature. The pellet was resuspended in 10 mL of 1x RBC lysis solution (130-094-183, Miltenyi Biotec) and lysed for 10 min at room temperature. The cells were then washed in MACS buffer twice as above. The final pellet was resuspended in 1 mL of MACS buffer per 5 mL of initial blood volume and counted using cell size FSC-H/SSC-H parameters with gate settings previously defined by immunostaining (see below). The leukocytes were then resuspended in assay buffer for cell migration and used within 30 min of isolation.
Cell counts were determined using an ATTUNE NxT Flow Cytometer with Cytkick autosampler (ThermoFisher), based on cell size parameters FSC-H/SSC-H, with previously defined gate settings. FSC-H/SSC-H gate settings for primary white blood cells from buffy coats were determined using flow cytometry to establish the granulocyte, monocyte and lymphocyte populations (Supplementary Fig. 13). Briefly, cells were labelled with anti-CD3 (Miltenyi Biotec, 130-113-135) to identify the T cell population, anti-CD14 (Miltenyi Biotec, 130-110-578) to identify the monocyte population, and with anti-CD16 (Miltenyi Biotec, 130-113-951) to identify the granulocyte population. Negative control cells were labelled with anti-human IgG1 (Miltenyi Biotec, 130-113-434). All antibodies were allophycocyanin (APC) conjugated. 100,000 white blood cells were added to Eppendorf tubes and centrifuged at 300 g for 3 min. The supernatant was discarded, and the cells resuspended in 98 µL of MACS buffer (1× PBS, 2 mM EDTA and 0.5% BSA, sterile filtered). 2 µl of antibody was added to the cells. […]

A further test has as its system activated T-cells (ATC). The test can be described thus: Chemokine dose-response, activated T-cell (ATC) migration. Conditions: mean of biological replicates (3-6). In kind it is cell-based, human. The method, then: Cell lines were confirmed mycoplasma free by monthly testing using a MycoAlert^TM kit (LT07-118, Lonza) following the manufacturer’s instructions. THP1 cells: THP1 cells (ECACC 88081201, a human monocyte leukemia cell line[51]) were obtained from ECACC and were cultured in T175 flasks at 0.3-1 × 10^6 cells/mL in Roswell Park Memorial Institute (RPMI) 1640 medium (R0883, Sigma) with 10% FBS (F9665, Sigma) and 5mM L-glutamine (G7513, Sigma), 37 °C, 5% CO2. J:CXCR1 cells: The J:CXCR1 cell line was cultured in the same manner as THP1 cells at 0.15-1 × 10^6 cells per mL[37]. Activated T-cells: T-cells were isolated, activated and expanded as follows. […] The final pellet was resuspended in 1 mL of MACS buffer per 5 mL of initial blood volume and counted using cell size FSC-H/SSC-H parameters with gate settings previously defined by immunostaining (see below). […]
Cell counts were determined using an ATTUNE NxT Flow Cytometer with Cytkick autosampler (ThermoFisher), based on cell size parameters FSC-H/SSC-H, with previously defined gate settings. FSC-H/SSC-H gate settings for primary white blood cells from buffy coats were determined using flow cytometry to establish the granulocyte, monocyte and lymphocyte populations (Supplementary Fig. 13). […]

B1: CCL8: human chemokine, Peprotech 300-15 (protein, UniProt P80075 24-99, looked up)
C-C motif chemokine 8: QPDSVSIPITCCFNVINRKIPIQRLESYTRITNIQCPKEAVIFKTKRGKEVCADPKERWVRDSMKHLDQIFQNLKP
For B1, in the test with THP1 cells, the “Mean pEC80” value is 7.84 [M] and the “Mean pEC50” value was 8.19 [M].

B2: CCL23: human chemokine, Biolegend 587002 (protein, UniProt P55773 22-120, looked up)
C-C motif chemokine 23: RVTKDAETEFMMSKLPLENPVLLDRFHATSADCCISYTPRSIPCSLLESYFETNSECSKPGVIFLTKKGRRFCANPSDKQVQVCMRMLKLDTRIKTRKN
Consider B2, for which, in the test with THP1 cells, the “Mean pEC80” value was 8.66 [M] and the “Mean pEC50” value was 8.97 [M].

B3: CCL21: human chemokine, Peprotech 300-35A (protein)
chain: SDGGAQDCCLKYSQRKIPAKVVRSYRKQEPSLGCSIPAILFLPRKRSQAELCADPKELWVQQLMQHLDKTPSPQKPAQGCRKDRGASKTGKKGKGSKGCKRTERSQTPKGP
For B3, in the test on activated T-cells (ATC), the “Mean pEC50” value is 7.98 [M] and the “Mean pEC80” value is 7.42 [M].

B4: CCL14: human chemokine, Peprotech 300-38B (protein, UniProt Q16627 20-93, looked up)
C-C motif chemokine 14: TKTESSSRGPYHPSECCFTYTTYKIPRQRIMDYYETNSQCSKPGIVFITKRGHSVCTNPSDKWVQDYIKDMKEN
On to B4, for which, in the test with THP1 cells, the “Mean pEC80” value was 9.23 [M] and the “Mean pEC50” value was 9.61 [M].

The values above are taken from PMC11969024, “Development of chemokine network inhibitors using combinatorial saturation mutagenesis” (Communications Biology, 2025).
